Data: patent publication US20210130437A1 (ALPINE IMMUNE SCIENCES, published 2021)
Positions count from the first letter of the chain named. Names and notes keep the numbering of the source.

T1: CD226 (Homo sapiens (Human), UniProt Q15762 19-336)
T1 construct: on transfected cells
T1 sequence: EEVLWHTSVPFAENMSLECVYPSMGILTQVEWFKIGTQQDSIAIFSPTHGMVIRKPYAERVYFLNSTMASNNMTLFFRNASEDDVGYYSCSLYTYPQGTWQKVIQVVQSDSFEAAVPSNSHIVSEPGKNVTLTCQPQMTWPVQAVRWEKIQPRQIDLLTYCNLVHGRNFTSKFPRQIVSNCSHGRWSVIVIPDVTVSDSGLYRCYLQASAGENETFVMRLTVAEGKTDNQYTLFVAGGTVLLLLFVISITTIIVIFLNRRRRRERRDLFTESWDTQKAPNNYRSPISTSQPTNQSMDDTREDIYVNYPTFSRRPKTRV

T2: TIGIT (Homo sapiens (Human), UniProt Q495A1 22-244)
T2 construct: on transfected cells
T2 sequence: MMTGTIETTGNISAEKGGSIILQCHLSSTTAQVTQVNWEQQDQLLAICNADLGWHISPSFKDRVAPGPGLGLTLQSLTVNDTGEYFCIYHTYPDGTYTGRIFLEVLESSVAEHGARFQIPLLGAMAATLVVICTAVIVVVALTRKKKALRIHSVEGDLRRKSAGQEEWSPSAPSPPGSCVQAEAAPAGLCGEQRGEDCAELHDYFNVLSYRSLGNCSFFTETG

T3: CD96 (UniProt P40200 22-585, limits assumed)
T3 construct: whole, on cells; on transfected cells
T3 sequence (looked up): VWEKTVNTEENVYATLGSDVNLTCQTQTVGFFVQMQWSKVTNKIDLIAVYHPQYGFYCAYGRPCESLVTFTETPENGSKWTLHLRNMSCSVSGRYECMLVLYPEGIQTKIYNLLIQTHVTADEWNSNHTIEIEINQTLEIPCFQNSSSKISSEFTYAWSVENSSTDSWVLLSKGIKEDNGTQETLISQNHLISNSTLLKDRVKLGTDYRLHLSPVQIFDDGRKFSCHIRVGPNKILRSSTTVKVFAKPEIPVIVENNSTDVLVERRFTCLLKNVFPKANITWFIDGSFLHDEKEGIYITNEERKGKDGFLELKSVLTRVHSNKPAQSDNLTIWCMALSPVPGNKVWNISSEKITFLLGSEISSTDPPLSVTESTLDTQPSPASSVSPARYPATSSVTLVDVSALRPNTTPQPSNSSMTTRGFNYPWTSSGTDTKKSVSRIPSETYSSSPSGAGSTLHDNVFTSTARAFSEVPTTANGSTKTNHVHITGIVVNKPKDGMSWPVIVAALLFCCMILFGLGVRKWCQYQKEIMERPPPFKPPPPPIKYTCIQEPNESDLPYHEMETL

T4: TIGIT (UniProt Q495A1 22-244)
T4 construct: whole, on cells; cell-expressed counter structure
T4 sequence (looked up): T2 sequence

B1: WT CD80 ECD Fc (Fc fusion, not shown: a dimerising Fc or GST)
chain: VIHVTKEVKEVATLSCGHNVSVEELAQTRIYWQKEKKMVLTMMSGDMNIWPEYKNRTIFDITNNLSIVILALRPSDEGTYECVVLKYEKDAFKREHLAEVTLSVKADFPTPSISDFEIPTSNIRRIICSTSGGFPEPHLSWLENGEELNAINTTVSQDPETELYAVSSKLDFNMTTNHSFMCLIKYGHLRVNQTFNWNTTKQEHFPDN
B2: variant CD155 IgV-Fc A81V, L83P (Fc fusion, not shown: a dimerising Fc or GST)
chain: WPPPGTGDVVVQAPTQVPGFLGDSVTLPCYLQVPNMEVTHVSQLTWARHGESGSMAVFHQTQGPSYSESKRLEFVAARLGVEPRNASLRMFGLRVEDEGNYTCLFVTFPQGSRSVDIWLRVL
B3: variant CD155 IgV-Fc P18T, F91S, R94H (Fc fusion, not shown: a dimerising Fc or GST)
chain: B2 chain with P18T, V81A, P83L, F91S, R94H
B4: variant CD155 IgV-Fc P18L, L79V, F91S (Fc fusion, not shown: a dimerising Fc or GST)
chain: B2 chain with P18L, L79V, V81A, P83L, F91S
B5: variant CD155 IgV-Fc V9L, V11M, P18S, N35S, S54G, Q62K, L79P, L104M, T107M, V115M (Fc fusion, not shown: a dimerising Fc or GST)
chain: WPPPGTGDLVMQAPTQVSGFLGDSVTLPCYLQVPSMEVTHVSQLTWARHGESGGMAVFHQTKGPSYSESKRLEFVAARPGAELRNASLRMFGLRVEDEGNYTCMFVMFPQGSRSMDIWLRVL

Columns and labels:
[1] = target: T5, CD28 (Homo sapiens (Human), UniProt P10747 19-220); assay: flow cytometry, HEK293 cells transfected with CD28
T5 construct: Expressed on transfected HEK293 cells

[2] = target: T1, CD226; assay: flow cytometry, transfected cells
[3] = target: T2, TIGIT; assay: flow cytometry, transfected cells
[4] = target: T3, CD96; assay: flow cytometry, transfected cells
[5] = target: T4, TIGIT; assay: flow cytometry, cells expressing TIGIT

Binder	MFI at 66.6 nM [1]	MFI parental ratio [2] [ratio]	MFI parental ratio [3] [ratio]	MFI parental ratio [4] [ratio]	MFI at 25 nM [5]
B1	3070	–	–	–	–
B2	–	1.1	1.1	0.8	–
B3	–	1	1.1	0.8	–
B4	–	1.4	1.5	1.1	–
B5	–	–	–	–	3000
